Data as given in the supplement of paper PMC10724198.
± gives the standard deviation of the averaged measurements.

System: Saccharomyces cerevisiae
Test: protein stability index of tFT-peptide fusion (C-terminal peptide) (PSI (0-1 scale)); higher = more stable (slower turnover)
Conditions: temperature: 30 C
Method: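 MPS profiling in S. cerevisiae of the yeast C-terminome library: the last 12 aa of each annotated ORF are fused to the C-terminus of a sfGFP-mCherry timer, after a GGGS linker. Cells are FACS-sorted into 8 mCherry/sfGFP bins and deep-sequenced. PSI runs from 0 (unstable) to 1 (stable); wild type and das1Δ backgrounds, two technical replicates each.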

[1] = genetic background: das1 deletion

Sequence | protein stability index [1] | protein stability index (genetic background: wild type)
KEMWITGKIVED [IML1 C-terminal 12 aa] | 0.672 ± 0.021 | 0.6639 ± 0.0055
KGCYKLCKNLLE [KEI1 C-terminal 12 aa] | 0.686 ± 0.013 | 0.696 ± 0.043
KGDGKFWSSKKD [OM45 C-terminal 12 aa] | 0.709 ± 0.0022 | 0.6744 ± 0.0029
KGFQFGLGLAFL [SAM50 C-terminal 12 aa] | 0.736 ± 0.034 | 0.69 ± 0.019
KGHVHSPRHNND [YOR379C C-terminal 12 aa] | 0.7103 ± 0.0065 | 0.713 ± 0.035
KGTCGCGESFMV [ISA1 C-terminal 12 aa] | 0.71 ± 0.0094 | 0.69 ± 0.045
KHIDYRHAPGNI [RRN10 C-terminal 12 aa] | 0.6875 ± 0.0066 | 0.69587 ± 0.00057
KHKNILSFNNNT [YDR543C C-terminal 12 aa] | 0.687 ± 0.02 | 0.709 ± 0.041
KHPRPFRQEHRC [YLR162W C-terminal 12 aa] | 0.6986 ± 0.0027 | 0.6577 ± 0.0057
KHQFLTKAKRFF [FET3 C-terminal 12 aa] | 0.693 ± 0.0079 | 0.7186 ± 0.0014
KHVSGKILGFVY [RPS22A C-terminal 12 aa] | 0.631 ± 0.045 | 0.63 ± 0.02
KIPKTYSELSCL [DUN1 C-terminal 12 aa] | 0.693 ± 0.042 | 0.669 ± 0.037
KKLHEEYFGEDK [CRS1 C-terminal 12 aa] | 0.673 ± 0.031 | 0.646 ± 0.032
KKMEARGQSIWV [RPN9 C-terminal 12 aa] | 0.713 ± 0.0075 | 0.6728 ± 0.0014
KKNGYIYFYTRC [UBP14 C-terminal 12 aa] | 0.69 ± 0.0087 | 0.6625 ± 0.0026
KKQKVVPLPTDI [SMM1 C-terminal 12 aa] | 0.6919 ± 0.0007 | 0.654 ± 0.015
KKSKPRANKLTI [ECM2 C-terminal 12 aa] | 0.713 ± 0.02 | 0.696 ± 0.017
KKYKFKLKFIKN [RNY1 C-terminal 12 aa] | 0.7118 ± 0.006 | 0.642 ± 0.02
KLDLPNVFHKKG [CHS2 C-terminal 12 aa] | 0.713 ± 0.027 | 0.706 ± 0.037
KLMVEEINLDID [FZO1 C-terminal 12 aa] | 0.7048 ± 0.0045 | 0.747 ± 0.092
KLRNSNNTRAED [AVO2 C-terminal 12 aa] | 0.67 ± 0.0067 | 0.672 ± 0.011

Sequence | protein stability index [1] | protein stability index (genetic background: wild type)
KLTSTVTLNLLY [YGR107W C-terminal 12 aa] | 0.692 ± 0.019 | 0.697 ± 0.029
KLYILKHLGSKQ [RRG9 C-terminal 12 aa] | 0.681 ± 0.037 | 0.685 ± 0.019
KMVLSHMKEKKD [YGL140C C-terminal 12 aa] | 0.688 ± 0.011 | 0.682 ± 0.017
KNEDSEVEDDLI [CUS2 C-terminal 12 aa] | 0.703 ± 0.042 | 0.67 ± 0.0098
KNGKVDPLKNFK [DBP9 C-terminal 12 aa] | 0.701 ± 0.015 | 0.684 ± 0.026
KNSGEKLVAVLN [YCR102C C-terminal 12 aa] | 0.6723 ± 0.001 | 0.666 ± 0.025
KPDVERVYKENT [FAA4 C-terminal 12 aa] | 0.701 ± 0.025 | 0.665 ± 0.011
KPEFVDIINSRN [TPI1 C-terminal 12 aa] | 0.7145 ± 0.0052 | 0.691 ± 0.026
KPLSKPAPDLDY [CWC25 C-terminal 12 aa] | 0.66 ± 0.024 | 0.676 ± 0.0075
KPRKKAKALPKT [RTT109 C-terminal 12 aa] | 0.689 ± 0.032 | 0.737 ± 0.014
KPRWYRIWNFWC [GAP1 C-terminal 12 aa] | 0.803 ± 0.017 | 0.419 ± 0.024
KQIDVFNGPKRV [MIG2 C-terminal 12 aa] | 0.713 ± 0.0091 | 0.7313 ± 0.0019
KQNIPRKPNVDI [BNS1 C-terminal 12 aa] | 0.6875 ± 0.0057 | 0.677 ± 0.018
KRDIVFAASLYL [SKI2 C-terminal 12 aa] | 0.6855 ± 0.0061 | 0.739 ± 0.12
KRDKLKKNCVIM [YGL082W C-terminal 12 aa] | 0.74 ± 0.016 | 0.698 ± 0.034
KREKTMRNSMLP [YIR036W-A C-terminal 12 aa] | 0.684 ± 0.0091 | 0.736 ± 0.076
KRLTSRLNKKHK [SPN1 C-terminal 12 aa] | 0.6937 ± 0.0067 | 0.69 ± 0.046
KRSLTLPVGMKI [AIM44 C-terminal 12 aa] | 0.683 ± 0.026 | 0.658 ± 0.02
KRYTVKKALAKA [RPL14A C-terminal 12 aa] | 0.6258 ± 0.0061 | 0.627 ± 0.013
KSADPDAMDTTE [RVB2 C-terminal 12 aa] | 0.702 ± 0.016 | 0.695 ± 0.021
KSAKATKASQEL [HTA1 C-terminal 12 aa] | 0.691 ± 0.011 | 0.675 ± 0.045

Sequence | protein stability index [1] | protein stability index (genetic background: wild type)
KSEIDTLKQDQK [TYE7 C-terminal 12 aa] | 0.656 ± 0.011 | 0.6659 ± 0.0018
KTATTLPGRRFV [LUC7 C-terminal 12 aa] | 0.6923 ± 0.0011 | 0.704 ± 0.017
KVHRKKVPGCTI [YGR011W C-terminal 12 aa] | 0.697 ± 0.015 | 0.686 ± 0.029
KVIFKDRPLPIM [CTF8 C-terminal 12 aa] | 0.643 ± 0.032 | 0.611 ± 0.012
KVYDELKKQGLV [PRP9 C-terminal 12 aa] | 0.693 ± 0.017 | 0.676 ± 0.0062
KYNSQKRATTPA [COQ4 C-terminal 12 aa] | 0.712 ± 0.027 | 0.6698 ± 0.0039
LAFRAHTMPNAP [ATO3 C-terminal 12 aa] | 0.699 ± 0.0097 | 0.694 ± 0.033
LATWDKQGNLKY [SRN2 C-terminal 12 aa] | 0.724 ± 0.012 | 0.696 ± 0.026
LCLLESLDCLAK [PMT7 C-terminal 12 aa] | 0.6692 ± 0.0024 | 0.68 ± 0.017
LCPVFFTWTNLR [YSR3 C-terminal 12 aa] | 0.656 ± 0.008 | 0.656 ± 0.034
LDKEMADYFEKK [YRA1 C-terminal 12 aa] | 0.693 ± 0.013 | 0.706 ± 0.035
LEDHTPPEDKPN [QCR10 C-terminal 12 aa] | 0.718 ± 0.021 | 0.695 ± 0.0076
LEEFLVRGTNNQ [ATP25 C-terminal 12 aa] | 0.711 ± 0.018 | 0.663 ± 0.012
LEEPYKPQRQRC [YPL088W C-terminal 12 aa] | 0.6798 ± 0.0049 | 0.718 ± 0.0087
LFTCTDPNDTIE [MMS4 C-terminal 12 aa] | 0.721 ± 0.027 | 0.72 ± 0.03
LFVTDGSLLLDL [EDC3 C-terminal 12 aa] | 0.703 ± 0.014 | 0.685 ± 0.032
LGMINTVVSLDR [YBR221W-A C-terminal 12 aa] | 0.691 ± 0.022 | 0.672 ± 0.04
LIAEILLARNLI [HOM2 C-terminal 12 aa] | 0.71 ± 0.0084 | 0.662 ± 0.007
LIGFGNQVSKAL [BUD25 C-terminal 12 aa] | 0.703 ± 0.03 | 0.723 ± 0.027
